From patent US20220119513A1 (ZOETIS SERVICES, published 2022)

Legend:
TGFβ3 (R&D Systems) [1] = target: T1, TGFβ3 (R&D Systems) (Homo sapiens (Human), UniProt P10600 301-412, Active TGFβ3 is a disulfide-linked homodimer of this chain; one copy is given.); assay: SPR, TGFβ on chip
T1 construct: also called TGFB3
T1 sequence: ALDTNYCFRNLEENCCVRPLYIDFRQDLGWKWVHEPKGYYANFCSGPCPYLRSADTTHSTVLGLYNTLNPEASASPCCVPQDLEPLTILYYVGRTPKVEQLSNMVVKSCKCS
Source text: (§1) To avoid affinity differences associated with differential surface preparation that can occur when immobilizing antibodies to surfaces, TGFβ1, TGFβ2, and TGFβ3 (R&D Systems) were directly conjugated to the individual surface. Immobilization was obtained by amine coupling […] using N-hydroxysuccinimide (NHS)/1-Ethyl-3-(3-dimethylaminopropyl) carbodiimide (EDC) chemistry. Chips were quenched with ethanolamine and the affinity with which all candidate mAbs bound to the immobilized TGFβ was evaluated. All curves were fit to a 1:1 model. Affinities <10⁻¹¹ are below the lower limit of quantitation of detection for the instrument.

TGFβ1 (R&D Systems) [2] = target: T2, TGFβ1 (R&D Systems); assay: SPR, TGFβ on chip
T2 construct: also called TGFB1
Source text: as §1

TGFβ2 (R&D Systems) [3] = target: T3, TGFβ2 (R&D Systems); assay: SPR, TGFβ on chip
T3 construct: also called TGFB2
T3 sequence (P61812 303-414, species assumed, looked up): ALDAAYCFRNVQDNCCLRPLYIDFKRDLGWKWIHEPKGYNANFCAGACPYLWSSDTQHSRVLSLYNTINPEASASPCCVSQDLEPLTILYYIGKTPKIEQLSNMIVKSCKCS
Source text: as §1

TGFβ1 (R&D Systems) [4] = target: T2, TGFβ1 (R&D Systems); assay: cell-based or functional assay
human TGFβ1 (PeproTech) = human TGFβ1 (PeproTech) (human, UniProt P01137 279-390); assay: HDX-MS epitope mapping, TGFβ1 with and without mAb
Protocol: Hydrogen Deuterium Exchange (HDX) experiments were used to determine the epitopes on TGFβ1 to which each antibody series binds. This method establishes the peptide level epitope on TGFβ1 targeted by each mAb by HDX mass spectrometry. For each mAb analysis, TGFβ1 is incubated in deuterium oxide in the presence and absence of mAb, is digested, and fragments are then analyzed and compared for hydrogen/deuterium exchange via mass spectrometry.
More specifically, the method was carried out as follows: One milligram of TGFβ1 was reconstituted in 500 μL control buffer (50 mM phosphate, 100 mM sodium chloride at pH 7.4). […] The mass spectra were recorded in MS only mode.
For pepsin digestion, 10 μg of human TGFβ1 in 80 μL control buffer (50 mM phosphate, 100 mM sodium chloride at pH 7.4) was denatured by adding 160 μL of 8 M urea, 0.85 M TCEP buffer (final pH is 4.0) and incubating the mixture for 3 min at 6° C. Then, the mixture was subjected to pepsin digestion using an-house packed pepsin column (2.1×30 mm) at 11° C. and the resultant peptides was analyzed using a UPLC-MS system comprised of a Waters Acquity UPLC coupled to a Q Exactive™ Hybrid Quadrupole-Orbitrap Mass Spectrometer (Thermo). […]

canine TGFβ3 = target: T4, canine TGFβ3 (canine, UniProt A0A8I3S1P1 346-457); assay: SPR, TGFβ on chip
T4 sequence: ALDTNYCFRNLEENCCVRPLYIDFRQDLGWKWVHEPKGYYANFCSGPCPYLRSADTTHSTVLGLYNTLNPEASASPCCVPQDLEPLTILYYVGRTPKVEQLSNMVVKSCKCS
Source text: as §1

canine TGFβ2 = target: T5, canine TGFβ2 (canine, UniProt A0A8I3PZZ6 331-442); assay: SPR, TGFβ on chip
T5 sequence: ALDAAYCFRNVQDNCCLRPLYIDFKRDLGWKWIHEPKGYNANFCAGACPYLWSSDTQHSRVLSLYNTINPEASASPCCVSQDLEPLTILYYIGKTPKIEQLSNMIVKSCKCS
Source text: as §1

canine TGFβ1 = canine TGFβ1 (canine, UniProt P54831 279-390, limits assumed); assay: SPR, TGFβ on chip
Source text: as §1

TGFβ1 (R&D Systems) [5] = target: T2, TGFβ1 (R&D Systems); assay: cell-based or functional assay; remark: listed apart in the source
TGFβ3 (R&D Systems) [6] = target: T1, TGFβ3 (R&D Systems); assay: cell-based or functional assay
TGFβ3 (R&D Systems) [7] = target: T1, TGFβ3 (R&D Systems); assay: cell-based or functional assay; remark: listed apart in the source
TGFβ1 (R&D Systems) [8] = target: T2, TGFβ1 (R&D Systems); assay: cell-based or functional assay; remark: listed apart in the source
TGFβ2 (R&D Systems) [9] = target: T3, TGFβ2 (R&D Systems); assay: cell-based or functional assay
TGFβ3 (R&D Systems) [10] = target: T1, TGFβ3 (R&D Systems); assay: SPR full titration
TGFβ1 (R&D Systems) [11] = target: T2, TGFβ1 (R&D Systems); assay: SPR full titration
TGFβ2 (R&D Systems) [12] = target: T3, TGFβ2 (R&D Systems); assay: SPR full titration
TGFβ1 (R&D Systems) [13] = target: T2, TGFβ1 (R&D Systems); assay: SPR

T2 sequence (P01137 279-390): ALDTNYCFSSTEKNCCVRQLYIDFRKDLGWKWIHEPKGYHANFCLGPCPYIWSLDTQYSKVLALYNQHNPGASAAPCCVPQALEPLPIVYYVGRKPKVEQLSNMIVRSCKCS
Chain of canine TGFβ1 (P54831 279-390 limits assumed): as the sequence (P01137 279-390) above
Chain of human TGFβ1 (PeproTech) (P01137 279-390 limits assumed): as the sequence (P01137 279-390) above

B1: 04H09 (mouse) (antibody, V domains shown)
VH: QVQLQQSGAELVKPGASVKISCKASGYAFSSSWMNWVKQRPGKGLEWIGQIYPGDGDTNYNGKFKGKATLTADKSSSTAYMQLSSLTSEDSAVYFCARHYDGSTDYWGQGTTLTVSS
VL: DIQMTQSPASLSVSVGETVTITCRASENIYSNLAWYQQKQGKSPQLLVYAATNLADGVPSRFSGSGSGTQYSLKINSLQSEDFGSYYCQHFWGTPYTFGGGTKLEIK
notes: mouse IgG, kappa, purified from hybridoma; also called mouse 04H09 monoclonal antibody; 04H09 (murine)
Question: What does the source list for B1?
Answer: Kd (TGFβ3 (R&D Systems) [1]): 1.26 nM; Kd (TGFβ1 (R&D Systems) [2]): 0.0443 nM; Kd (TGFβ2 (R&D Systems) [3]): 7.13 nM; CMVIC pSmad-3, IC50 (TGFβ1 (R&D Systems) [4]): 4.66 nM; binding result (human TGFβ1 (PeproTech)): binds

B2: Can04H09 VH1/VL4 (antibody, V domains shown)
VH: EVQLVQSGAEVKKPGASVKVSCKTSGYTFISSWMNWVRQAPGAGLDWMGQIYPGDGDTNYNGKFKGRVTLTADTSTSTAYMELSSLRAGDIAVYYCARHYDGSTDYWGQGTLVTVSS
VL: EIVMTQSPASLSLSQGEKVTITCRASENIYSNLAWYQQRPGQAPKLLIYAATNLADGVPSRFSGSGSGTDFSLTISSLEPEDVAVYYCQHFWGTPYTFGQGTK
Question: Which results are given for B2?
Answer: Kd (canine TGFβ3): 4.78 nM; Kd (canine TGFβ2): 29.7 nM; Kd (canine TGFβ1): 2.18 nM; IC50 (read off the curve), inhibition of TGFβ1-induced SMAD3 signalling [panel TGFβ1] (TGFβ1 (R&D Systems) [5]): ~0.2 µg/mL; CMVIC pSmad-3, IC50 (TGFβ3 (R&D Systems) [6]): 136 nM; CMVIC pSmad-3, IC50 (TGFβ1 (R&D Systems) [4]): 0.88 nM

B3: mHcLb (antibody, V domains shown)
VH: QVQLEESGPELVRPGASVKLSCKASGYIFITYWMNWVKQRPGQGLEWIGQIFPASGSTNYNEMFEGKATLTVDTSSSTAYMQLSSLTSEDSAVYYCARGDGNYALDAMDYWGQGT
VL: DIVLTQTPASLAVSLGQRATISCRASESVDSYGNSFMHWYQQKSGQPPKLLIYLASNLESGVPARFSGSGSRTDFTLTIDPVEADDAATYYCQQNNEDPLTFGAGTK
notes: murine antibody; also called 1D11; mHcLb (murine)
Question: With B3 as the binder, how does the “pSmad-3, IC50” value (TGFβ3 (R&D Systems) [7]) read?
Answer: 1.11 nM

Question: And the “pSmad-3, IC50” value (TGFβ1 (R&D Systems) [8])?
Answer: 1.52 nM

Question: What about the “pSmad-3, IC50” value (TGFβ2 (R&D Systems) [9]) of the same binder?
Answer: 11 nM

Question: What about the Kd (TGFβ3 (R&D Systems) [10]) of the same binder?
Answer: 0.223 nM

Question: What about the Kd (TGFβ1 (R&D Systems) [11]) of the same binder?
Answer: 5.05 nM

Question: What about the Kd (TGFβ2 (R&D Systems) [12]) of the same binder?
Answer: 0.586 nM

B4: felHclb 1-1YMN (antibody, V domains shown)
VH: QVLLVQSGAEVRTPGASVKIFCKASGYIFITYYMNWVRQSPAQGLEWMGSIFPASGSTSYAQKFQGRLTLTADTSTNTAYMELSSLRSADTAMYYCARGDGNYALDAMDYWGQGTSVTVSS
VL: EIQMTQSPSSLSASPGDRVTITCRASESVDSYGNSFMHWYQQKPGKVPKLLIYLASNLESGVPSRFSGSGSGTDFTLTISSLEPEDAATYYCQQNNEDPLTFGAGT
notes: also called felHclbH1-1YMN/felHclbK1-1; felHcLb-H1-1MN
Question: How did the Kd (TGFβ1 (R&D Systems) [13]) turn out when B4 was run?
Answer: 263000 nM
